Tests used:
[1] = biological target: SARS-CoV-2刺突S1亚基蛋白(Sino公司，货号:40591-V02H) (SARS-CoV-2, UniProt P0DTC2 16-685)
[2] = biological target: T1, SARS-CoV-2刺突S1-His重组蛋白(Sino公司，货号:40591-V08H) (SARS-CoV-2, UniProt P0DTC2 16-685); assay: ELISA; S1-His coated at 1.0 μg/mL, goat anti-human IgG-HRP detection
T1 construct: domain: S1; also called S1蛋白; 刺突蛋白S1

B1: 抗SARS-CoV-2的单克隆抗体2B11 (antibody, V domains shown)
VH: EVQLVESGGGLVQPGGSLRLSCAASEITVSSNYMNWVRQAPGKGLEWVSVIYSGGTTYYADSVKGRFTISRDNSENTLYLQMNSLRAEDTAVYYCARDLMEVGGMDVWGQGTTVTVSS
VL: LPVLTQPPSASGTPGQRVTISCSGSSSNVENDNVNWFQQQVPGSTPKLVIYNDRLRPSGVPDRFSGSKSGTSAYLAISGLQSEDEADYYCVAWDASLQSYVFGTGTKVTVL
notes: also called 2B11抗体; 人源抗SARS-CoV-2抗体2B11
[1]
  IC50: 2.79 nM
[2]
  EC50: 0.051 nM

— patent CN112521494A (WUHAN INST OF BIOLOGICAL PRODUCTS CO LTD, dated 2021)
